One experiment has as its target T1, MARV Ravn GPe (Marburg virus, strain Ravn, UniProt Q1PDC7 19-648).
T1 construct: extracellular domain; also called Marburg GP (Ravn) ectodomain
T1 sequence: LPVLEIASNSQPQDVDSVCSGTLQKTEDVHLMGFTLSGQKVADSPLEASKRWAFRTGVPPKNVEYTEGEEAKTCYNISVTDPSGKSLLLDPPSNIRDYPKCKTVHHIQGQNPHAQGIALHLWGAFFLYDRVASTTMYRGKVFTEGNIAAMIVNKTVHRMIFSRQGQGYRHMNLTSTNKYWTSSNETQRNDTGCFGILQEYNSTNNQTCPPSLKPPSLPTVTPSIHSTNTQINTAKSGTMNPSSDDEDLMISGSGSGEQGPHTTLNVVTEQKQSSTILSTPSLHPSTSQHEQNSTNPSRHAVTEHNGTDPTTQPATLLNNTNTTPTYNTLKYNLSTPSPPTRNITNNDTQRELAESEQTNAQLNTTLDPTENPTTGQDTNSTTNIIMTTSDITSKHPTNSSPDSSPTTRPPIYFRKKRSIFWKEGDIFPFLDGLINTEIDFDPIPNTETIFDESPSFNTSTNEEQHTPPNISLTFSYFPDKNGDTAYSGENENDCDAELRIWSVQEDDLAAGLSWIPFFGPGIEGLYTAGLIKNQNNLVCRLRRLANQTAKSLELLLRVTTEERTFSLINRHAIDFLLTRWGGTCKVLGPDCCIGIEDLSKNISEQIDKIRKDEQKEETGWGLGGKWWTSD
In words: ELISA, GP coated 200 ng/well, mAb at 2 ug/mL. For orientation: ELISA stands for enzyme-linked immunosorbent assay.

In experiment [1] the target is T2, MARV Musoke GPe (Marburg virus, strain Musoke, UniProt P35253 19-648).
T2 construct: extracellular domain; also called Marburg GP (Musoke) ectodomain
T2 sequence: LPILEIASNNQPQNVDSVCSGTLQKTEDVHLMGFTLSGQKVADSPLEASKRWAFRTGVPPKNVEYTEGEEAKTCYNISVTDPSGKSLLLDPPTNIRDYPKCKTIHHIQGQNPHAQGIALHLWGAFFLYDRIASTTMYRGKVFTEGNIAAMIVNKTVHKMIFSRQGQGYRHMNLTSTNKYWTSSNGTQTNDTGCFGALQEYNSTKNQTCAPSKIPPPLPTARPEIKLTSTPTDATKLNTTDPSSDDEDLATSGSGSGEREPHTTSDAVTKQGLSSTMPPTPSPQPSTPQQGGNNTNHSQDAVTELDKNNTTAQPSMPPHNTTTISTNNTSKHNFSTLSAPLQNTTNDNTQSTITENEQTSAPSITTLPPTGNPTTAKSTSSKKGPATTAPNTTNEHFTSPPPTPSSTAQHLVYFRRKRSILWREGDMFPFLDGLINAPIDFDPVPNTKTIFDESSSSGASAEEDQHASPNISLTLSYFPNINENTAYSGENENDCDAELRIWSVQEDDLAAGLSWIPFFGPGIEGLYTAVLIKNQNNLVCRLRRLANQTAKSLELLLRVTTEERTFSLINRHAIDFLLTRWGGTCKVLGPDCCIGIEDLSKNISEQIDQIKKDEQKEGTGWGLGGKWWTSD
In words: ELISA on coated GPe (200 ng/well).

The target in experiment [2] is T3, MARV Angola GPe (Marburg virus, strain Angola, UniProt Q1PD50 19-648).
T3 construct: extracellular domain; also called Marburg GP (Angola) ectodomain
T3 sequence: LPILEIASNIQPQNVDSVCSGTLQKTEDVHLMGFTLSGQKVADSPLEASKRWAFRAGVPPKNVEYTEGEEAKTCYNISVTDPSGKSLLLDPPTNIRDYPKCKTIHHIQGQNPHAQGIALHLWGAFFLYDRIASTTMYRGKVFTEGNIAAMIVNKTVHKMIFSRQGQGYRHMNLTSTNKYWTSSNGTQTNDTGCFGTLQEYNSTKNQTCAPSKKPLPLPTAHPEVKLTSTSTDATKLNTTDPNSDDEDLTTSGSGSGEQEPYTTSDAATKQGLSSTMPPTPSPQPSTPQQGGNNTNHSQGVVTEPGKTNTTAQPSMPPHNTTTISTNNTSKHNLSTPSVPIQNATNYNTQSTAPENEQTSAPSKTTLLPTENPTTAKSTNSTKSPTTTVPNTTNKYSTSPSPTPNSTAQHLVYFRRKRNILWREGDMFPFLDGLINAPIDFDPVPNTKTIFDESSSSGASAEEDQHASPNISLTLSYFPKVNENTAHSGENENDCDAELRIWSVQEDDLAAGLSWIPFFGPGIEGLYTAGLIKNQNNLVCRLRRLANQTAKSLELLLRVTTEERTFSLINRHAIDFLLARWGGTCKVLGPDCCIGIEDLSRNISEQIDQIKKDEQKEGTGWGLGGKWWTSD
In words: ELISA on coated GPe (200 ng/well).

Experiment [3] deals with T2, MARV Musoke GPe. As to the kind of experiment: ELISA, GP coated 200 ng/well, mAb at 2 ug/mL.
Experiment [4] deals with T3, MARV Angola GPe. As to the kind of experiment: ELISA, GP coated 200 ng/well, mAb at 2 ug/mL.

B1: muCAN30G5 (antibody, V domains shown)
VH: EVQLVESGGGLVQPKGSLKLSCAASGFAFNSYAMHWVCQAPGKGLEWVARIRIKSGNYATSYAGSVTDRFTVSRDDSQNLFYLQMNNLKTEDTAMYYCVREWEGAMDYWGQGTSVTVSS
VL: DIVLTQSPLSLPVSLGDQASISCRSSQSLVHSNGNTYLHWYLQKPGQSPNLLIYKVSNRFSGVPDRFSGSGSGTDFTLKISRVEAEDLGVYFCSQSTHVPWTFGGGTKLEIK
notes: also called murine CAN30G5
For B1, the “OD405 @ 30 min” value with MARV Ravn GPe worked out at 0.16 OD405. Moreover, the binding result in the experiment with MARV Musoke GPe [1] and in the experiment with MARV Angola GPe [2] was “no binding” each time.

B2: huCAN30G5 (antibody, V domains shown)
VH: EVQLVESGGGLVQPGGSLKLSCAASGFAFNSYAMHWVRQASGKGLEWVARIRIKSGNYATSYAGSVKGRFTVSRDDSKNTFYLQMNSLKTEDTAMYYCVREWEGAMDYWGQGTLVTVSS
VL: DIVLTQSPLSLPVTLGQPASISCRSSQSLVHSNGNTYLHWYQQRPGQSPRLLIYKVSNRFSGVPDRFSGSGSGTDFTLKISRVEAEDVGVYYCSQSTHVPWTFGGGTKVEIK
notes: also called humanized CAN30G5
Regarding B2, in the experiment with MARV Ravn GPe, the “OD405 @ 30 min” value was 2.74 OD405. For the same molecule, the binding result with MARV Musoke GPe [1] and with MARV Angola GPe [2] was “no binding” each time.

B3: huCAN40G1 (antibody, V domains shown)
VH: EVQLQQSGPEVKKPGASVKVSCRTSGYTFTEYTIHWVKQAPGKGLEWIGGINPNHGGTLYNQKFKGRVTLTVDKSSSTAYMELSRLRSDDTAVYYCARFTYDYWGQGTLVTVSS
VL: DIVLTQSPASLAVSLGERATISCKASQSVDHDGDSYMNWYQQKPGQPPKLLIYATSNLESGIPARFSGSGSGTDFTLTISSLQAEDVATYYCQQSYEVPLTFGAGTKLEIK
notes: also called humanized CAN40G1
Turning to B3, the entries for the “OD405 @ 30 min” value with MARV Musoke GPe [3], with MARV Angola GPe [4] and in the experiment with MARV Ravn GPe were 2.73 OD405, 3.83 OD405 and 2.75 OD405, respectively.

B4: muCAN40G1 (antibody, V domains shown)
VH: EVQLQQSGPELVKPGASVKISCRTSGYTFTEYTIHWVKQSRGKSLEWIGGINPNHGGTLYNQKFKVKATLTVDKSSSTAYMELRSLTSEDSAVYYCARFTYDYWGQGTTLTVSS
VL: DIVLTQSPASLAVSLGQRASISCKASQSVDHDGDSYMNWYQQKPGQPPKLLIYATSNLESGIPARFSGSGSGTDFTLNIHPVEEEDAATYYCQQSYEVPLTFGAGTKLELK
notes: also called murine CAN40G1
As for B4, the “OD405 @ 30 min” value with MARV Musoke GPe [3] was 0.536 OD405; with MARV Angola GPe [4] it was 0.857 OD405; with MARV Ravn GPe, 0.504 OD405.

B5: huCAN54G2 (antibody, V domains shown)
VH: QVQLQQSGTEVKKPGASVKVSCKASGYDFTNFWLGWIRQAPGQGLEWIGDIYPGGDNTYYNEKFKGRVTLTADKSSNTAYMELSSLRSEDTAVYFCFMILYTLDYWGQGTLVTVSS
VL: DVVMTQTPLTLPVTLGQPASISCTSSQSLLNSDGETYLNWLLQRPGQSPKRLIHLVSKLDSGVPDRFSGSGSGTDFTLKISRVEAEDVGVYYCWQGTHFPWTFGGGTKVEIK
notes: also called humanized CAN54G2
In the case of B5, the entries for the “OD405 @ 30 min” value in the experiment with MARV Musoke GPe [3], with MARV Angola GPe [4] and in the experiment with MARV Ravn GPe were 0.908 OD405, 0.502 OD405 and 0.89 OD405, respectively.

B6: muCAN54G2 (antibody, V domains shown)
VH: QVQLQQSGTELVRPGTSVKISCKASGYDFTNFWLGWIKQRPGHGLEWIGDIYPGGDNTYYNEKFKGKVTLTADKSSNTAYMQFSSLTSEDSAVYFCFMILYTLDYWGQGTSVTVSS
VL: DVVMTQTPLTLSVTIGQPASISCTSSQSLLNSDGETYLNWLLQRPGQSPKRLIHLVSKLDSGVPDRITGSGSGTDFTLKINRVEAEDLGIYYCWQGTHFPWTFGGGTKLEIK
notes: also called murine CAN54G2
Turning to B6, the “OD405 @ 30 min” value came to 0.185 OD405 with MARV Musoke GPe [3], 0.15 OD405 with MARV Angola GPe [4] and 0.16 OD405 with MARV Ravn GPe.

For the origin of these results see patent US20180030118A1 (EMERGENT BIOSOLUTIONS CANADA, published 2018).
